Article PMC5703266

Target: recombinant soluble tissue factor sTF (1–219) (UniProt P13726)
Sequence of UniProt P13726 (P13726 33-251): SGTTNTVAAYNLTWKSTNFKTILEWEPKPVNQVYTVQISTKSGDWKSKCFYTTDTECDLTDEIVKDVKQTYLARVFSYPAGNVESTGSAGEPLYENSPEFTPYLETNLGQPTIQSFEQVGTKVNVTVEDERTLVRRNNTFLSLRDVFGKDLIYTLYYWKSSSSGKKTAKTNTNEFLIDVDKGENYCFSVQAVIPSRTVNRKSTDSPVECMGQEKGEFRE

activation of FX in solution, kcat/KM: 663 M⁻¹ s⁻¹
Substance: coagulation factor VIIa (FVIIa) (enzyme)
